One block for each molecule: values may come before it.
Experiments:
myostatin [1] = target: T1, myostatin (Homo sapiens, UniProt O14793); experiment: C2C12 pMARE-luc cell based myostatin activity assay; conditions: Table VIII; affinity matured peptibodies; a range of values is given
T1 construct: To produce mature myostatin, the pooled promyostatin was enzymatically cleaved between the propeptide and mature myostatin C terminal; made in house; host or cells: E. coli K-12 strain 2596 (ATCC #202174)
T1 sequence (O14793 267-375): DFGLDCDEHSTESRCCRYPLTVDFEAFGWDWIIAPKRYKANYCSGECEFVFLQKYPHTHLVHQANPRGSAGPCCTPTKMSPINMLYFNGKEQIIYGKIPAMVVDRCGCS
Source text: A myostatin-responsive reporter cell line was generated by transfection of C2C12 myoblast cells (ATCC No: CRL-1772) with a pMARE-luc construct. The pMARE-luc construct was made by cloning twelve repeats of the CAGA sequence, representing the myostatin/activin response elements (Dennler et al. EMBO 17: 3091-3100 (1998)) into a pLuc-MCS reporter vector (Stratagene cat #219087) upstream of the TATA box. The myoblast C2C12 cells naturally express myostatin/activin receptors on its cell surface. When myostatin binds the cell receptors, the Smad pathway is activated, and phosphorylated Smad binds to the response element (Maciasi-Silva et al. Cell 87:1215 (1996)), resulting in the expression of the lucerase gene. Luciferase activity is then measured using a commercial luciferase reporter assay kit (cat #E4550, Promega, Madison, Wis.) according to manufacturer's protocol. A stable line of C2C12 cells that had been transfected with pMARE-luc (C2C12/pMARE clone #44) was used to measure myostatin activity according to the following procedure.
Equal numbers of the reporter cells (C2C12/pMARE clone #44) were plated into 96 well cultures. A first round screening using two dilutions of peptibodies was performed with the myostatin concentration fixed at 4 nM. […] Myostatin activity was measured by determining the luciferase activity in the treated cultures. […]

C57B/6 mice = experiment: Gripping strength in C57B/6 mice; type: in vivo, mouse; conditions: 4 month old male C57B/6 mice; s.c. 2 injections per week, 5 mg/kg per week, 30 days; measured day 18 of recovery
Protocol: Normal age-matched 4 month old male C57B/6 mice were treated for 30 days with 2 injections per week subcutaneous injections 5 mg/kg per week of 2× mTN8-19-33, 2× mTN8-19-7, and huFc vehicle control group (10 animals/group). The animals were allowed to recover without any further injections. Gripping strength was measured on day 18 of the recovery period. Gripping strength was measured using a Columbia Instruments meter, model 1027 dsm (Columbus, Ohio).

[2] = In vivo pharmacokinetics in CD1 nu/nu mice; set-up: species or system mouse; conditions: 10 mg/kg and 5 mg/kg, peptibodies without the LE sequences
Protocol: In vivo pharmacokinetics experiments were performed using representative peptibodies without the LE sequences. 10 mg/kg and 5 mg/kg dosages were administered to CD1 nu/nu mice and the following parameters determined. Cmax (ug/mL), area under the curve (AUC) (ug-hr/mL), and half-life (hr).

CD1 nu/nu mouse model = experiment: In vivo anabolic activity in CD1 nu/nu mouse model; conditions: CD1 nu/nu male mice; 1 and 3 mg/kg twice weekly for 35 days; vs 1× peptibody or huFc control; FIG. 5
Source text: The CD1 nu/nu mouse model (Charles River Laboratories, Massachusettes) was used to determine the in vivo efficacy of the peptibodies of the present invention which included the human Fc region (huFc). This model responded to the inhibitors of the present invention with a rapid anabolic response which was associated with increased dry muscle mass and an increase in myofibrillar proteins but was not associated with accumulation in body water content.
A group of 10 8 week old CD1 nu/nu mice were treated twice weekly or once weekly with dosages of 1 mg/kg, 3 mg/kg and 10 mg/kg (subcutaneous injection). The control group of 10 8 week old CD1 nu/nu mice received a twice weekly (subcutaneous) injection of huFc (vehicle) at 10 mg/kg. The animals were weighed every other day and lean body mass determined by NMR on day 0 and day 13. The animals are then sacrificed at day 14 and the size of the gastrocnemius muscle determined.
In another example, the 1× mTN8-19-32 peptibody was administered to CD1 nu/nu mice in a biweekly injection of 1 mg/kg, 3 mg/kg, 10 mg/kg, and 30 mg/kg compared with the huFc control (vehicle).
CD1 nu/nu male mice (10 animals per group) were treated with twice weekly injections of 1 mg/kg and 3 mg/kg of 1× mTN8-19-7 and 2× mTN8-19-7 for 35 days, while the control group (10 animals) received twice weekly injections of huFc (3 mg/kg).

myostatin [3] = target: T1, myostatin; experiment: BIAcore direct binding affinity assay on immobilized myostatin; conditions: Table III
Protocol: An affinity analysis of each candidate myostatin peptibody was performed on a BIAcore® 3000 (Biacore, Inc., Piscataway, N.J.), apparatus using sensor chip CM5, and 0.005 percent P20 surfactant (Biacore, Inc.) as running buffer.
Direct binding assays were used to screen and rank the peptibodies in order of their ability to bind to immobilized myostatin. Binding assays were carried by injection of two concentrations (40 and 400 nM) of each candidate myostatin-binding peptibody to the immobilized myostatin surface at a flow rate of 50 μl/min for 3 minutes. After a dissociation time of 3 minutes, the surface was regenerated. Binding curves were compared qualitatively for binding signal intensity, as well as for dissociation rates. Peptibody binding kinetic parameters including ka (association rate constant), kd (dissociation rate constant) and KD (dissociation equilibrium constant) were determined using the BTA evaluation 3.1 computer program (Biacore, Inc.). The lower the dissociation equilibrium constants (expressed in nM), the greater the affinity of the peptibody for myostatin.

IC50 (myostatin [1]): 0.857 to 2.65 nM
B1: 2xmTN8-19-7: 2x peptibody, two mTN8-19-7 peptides in tandem on Fc (SEQ ID NO: 615) (protein)
chain: GGGGGAQLADHGQCIRWPWMCPPEGWELEGSGSATGGSGSTASSGSGSATGLADHGQCIRWPWMCPPEGWELE
modifications: Peptibody
increase in gripping strength compared with control-treated mice (C57B/6 mice): 15%
half-life [2]: about 106 hours
body weight gain (CD1 nu/nu mouse model): greater body weight gain
lean carcass weight at necropsy (CD1 nu/nu mouse model): greater

IC50 (myostatin [1]): 1.08 to 1.22 nM
B2: 2xmTN8-19-7(-LE): 2x mTN8-19-7 peptibody with the LE sequences deleted (SEQ ID NO: 617) (protein)
chain: GGGGGAQLADHGQCIRWPWMCPPEGWEGSGSATGGSGGGASSGSGSATGLADHGQCIRWPWMCPPEGWE
modifications: Peptibody

Kd (myostatin [3]): ~7 nM
B3: ActRIIB/Fc: soluble receptor fusion protein actRIIB/Fc (R&D Systems) (protein)
chain: SGRGEAETRECIYYNANWELERTNQSGLERCEGEQDKRLHCYASWRNSSGTIELVKKGCWLDDFNCYDRQECVATEENPQVYFCCCEGNFCNERFTHLPEAGGPEVTYEPPPTAPT
modifications: left off: a dimerising Fc or GST
